# According to patent publication US20160272680A1 (Bristol-Myers Squibb, published 2016):
# Numbered stars: 1 amine (or outer) side, 2 acyl side, 3 side chain; on linkers, the order of the positions; unused ones are H or OH. Bridge positions count the residues as written; N and C are the ends. Square brackets hold non-standard residues; d marks the D form. Ends that are not written are not given here. * marks the point of attachment. Trp(1-CH2CO) = O=C([C@H](Cc1cn(CC(=O)[*:3])c2ccccc12)N[*:1])[*:2]; Hyp = O=C(O)[C@@H]1C[C@@H](O)CN1; NMeNle = CCCC[C@H](NC)C(=O)O; NMeA = CN[C@@H](C)C(=O)O; Dab = NCC[C@H](N)C(=O)O; Dap = NC[C@H](N)C(=O)O; NH(propargyl) = C#CCN*; NHBn = c1ccc(CN*)cc1
# Biological target: T1, hPDL1(19-239)-TVMV-His (human, UniProt Q9NZQ7 19-239)
# T1 construct: Expressed in HEK293T cells; The text says amino acids 18-239, but the construct is named hPD-L1(19-239); The whole entry, including the TVMV site and His tag, is the protein used in the assay; also called PD-L1-TVMV-His; PD-L1-His
# Test: HTRF competition of PD-1-Ig binding to PD-L1-His; code B=0.004-0.0099 µM
# Procedure: (§1) Homogenous Time-Resolved Fluorescence (HTRF) Assays of Binding of Soluble PD-1 to Soluble PD-L1. Soluble PD-1 and soluble PD-L1 refers to proteins with carboxyl-end truncations that remove the transmembrane-spanning regions and are fused to heterologous sequences, specifically the Fc portion of the human immunoglobuling G sequence (Ig) or the hexahistidine epitope tag (His). All binding studies were performed in an HTRF assay buffer consisting of dPBS supplemented with 0.1% (w/v) bovine serum albumin and 0.05% (v/v) Tween-20. For the PD-1-Ig/PD-L1-His binding assay, inhibitors were pre-incubated with PD-L1-His (10 nM final) for 15 m in 4 μl of assay buffer, followed by addition of PD-1-Ig (20 nM final) in 1 μl of assay buffer and further incubation for 15 m. PD-L1 fusion proteins from either human, cynomologous macaques, mouse, or other species were used. HTRF detection was achieved using europium crypate-labeled anti-Ig monoclonal antibody (1 nM final) and allophycocyanin (APC) labeled anti-His monoclonal antibody (20 nM final). Antibodies were diluted in HTRF detection buffer and 5 μl was dispensed on top of binding reaction. The reaction was allowed to equilibrate for 30 minutes and signal (665 nm/620 nm ratio) was obtained using an EnVision fluorometer. Additional binding assays were established between PD-1-Ig/PD-L2-His (20 and 5 nM, respectively), CD80-His/PD-L1-Ig (100 and 10 nM, respectively) and CD80-His/CTLA4-Ig (10 and 5 nM, respectively). Binding/competition studies between biotinylated Compound No. 71 and human PD-L1-His were performed as follows. Macrocyclic peptide inhibitors were pre-incubated with PD-L1-His (10 nM final) for 60 minutes in 4 μl of assay buffer followed by addition of biotinylated Compound No. 71 (0.5 nM final) in 1 μl of assay buffer. Binding was allowed to equilibrate for 30 minutes followed by addition of europium crypated labeled Streptavidin (2.5 pM final) and APC-labeled anti-His (20 nM final) in 5 μl of HTRF buffer. The reaction was allowed to equilibrate for 30 m and signal (665 nm/620 nm ratio) was obtained using an EnVision fluorometer.
# T1 sequence (Q9NZQ7 other isoform, or with tags, fused parts or gaps limits assumed): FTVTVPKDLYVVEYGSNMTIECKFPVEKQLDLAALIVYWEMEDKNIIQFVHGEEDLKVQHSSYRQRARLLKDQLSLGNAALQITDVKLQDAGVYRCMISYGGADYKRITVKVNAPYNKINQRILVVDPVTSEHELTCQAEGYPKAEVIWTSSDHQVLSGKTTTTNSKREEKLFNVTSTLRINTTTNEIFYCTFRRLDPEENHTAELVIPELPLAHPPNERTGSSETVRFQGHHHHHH
row,Binder,IC50 [nM]
1,"{CH2CO}-Y[NMeA]NP[Dap]L[Hyp]WGW[NMeNle][NMeNle]LCG-{piperidin‑1‑yl amide} (thioether N-14, Macrocyclic peptide) [Example 13086]",4 to 9.9
2,"{CH2CO}-Y[NMeA]NP[Dap]L[Hyp]WGW[NMeNle][NMeNle]LCG-{3‑aminopropanamide} (thioether N-14, Macrocyclic peptide) [Example 13110]",4 to 9.9
3,"{CH2CO}-Y[NMeA]NP[Dap]L[Hyp]W[Dab][Trp(1-CH2CO)][NMeNle][NMeNle]LCG-NHBn (thioether N-14; SMILES CCCC[C@H]1C(=O)N(C)[C@@H](CCCC)C(=O)N[C@@H](CC(C)C)C(=O)N[C@H](C(=O)NCC(=O)NCc2ccccc2)CSCC(=O)N[C@@H](Cc2ccc(O)cc2)C(=O)N(C)[C@@H](C)C(=O)N[C@@H](CC(N)=O)C(=O)N2CCC[C@H]2C(=O)N[C@@H](CN)C(=O)N[C@@H](CC(C)C)C(=O)N2C[C@H](O)C[C@H]2C(=O)N[C@@H](Cc2c[nH]c3ccccc23)C(=O)N[C@@H](CCN)C(=O)N[C@@H](Cc2cn(CC(=O)O)c3ccccc23)C(=O)N1C, Macrocyclic peptide) [Example 13080]",4 to 9.9
4,"{CH2CO}-Y[NMeA]NP[Dap]L[Hyp]WGW[NMeNle][NMeNle]LCG-cyclopropylamide (thioether N-14, Macrocyclic peptide) [Example 13091]",4 to 9.9

# Biological target: T1, hPDL1(19-239)-TVMV-His
# Test: HTRF competition of PD-1-Ig binding to PD-L1-His; code A=0.01-0.06 µM
# Procedure: as §1
row,Binder,IC50 [nM]
1,"{CH2CO}-Y[NMeA]NP[Dap]L[Hyp]WGW[NMeNle][NMeNle]LCG-{N,N‑dimethyl‑1,3‑propanediamine amide} (thioether N-14, Macrocyclic peptide) [Example 13098]",10 to 60
2,"{CH2CO}-Y[NMeA]NP[Dap]L[Hyp]WGW[NMeNle][NMeNle]LCG-{2‑phenoxyethylamine} (thioether N-14, Macrocyclic peptide) [Example 13108]",10 to 60
3,"{CH2CO}-Y[NMeA]NP[Dap]L[Hyp]WGW[NMeNle][NMeNle]LCG-{3‑(aminomethyl)pyridine amide} (thioether N-14, Macrocyclic peptide) [Example 13094]",10 to 60
4,"{CH2CO}-Y[NMeA]NP[Dap]L[Hyp]WGW[NMeNle][NMeNle]LCG-{2‑methoxyethylamide} (thioether N-14, Macrocyclic peptide) [Example 13082]",10 to 60
5,"{CH2CO}-Y[NMeA]NP[Dap]L[Hyp]WGW[NMeNle][NMeNle]LCG-{pyrrolidin‑1‑yl amide} (thioether N-14, Macrocyclic peptide) [Example 13085]",10 to 60
6,"{CH2CO}-Y[NMeA]NP[Dap]L[Hyp]WGW[NMeNle][NMeNle]LCG-{morpholine amide} (thioether N-14, Macrocyclic peptide) [Example 13087]",10 to 60
7,"{CH2CO}-Y[NMeA]NP[Dap]L[Hyp]WGW[NMeNle][NMeNle]LCG-{4‑(4-chlorophenyl)piperidine} (thioether N-14, Macrocyclic peptide) [Example 13115]",10 to 60
8,"{CH2CO}-Y[NMeA]NP[Dap]L[Hyp]WGW[NMeNle][NMeNle]LCG-allylamide (thioether N-14, Macrocyclic peptide) [Example 13097]",10 to 60
9,"{CH2CO}-Y[NMeA]NP[Dap]L[Hyp]WGW[NMeNle][NMeNle]LCG-{tert‑butyl 3‑aminopropanoate} (thioether N-14, Macrocyclic peptide) [Example 13109]",10 to 60
10,"{CH2CO}-Y[NMeA]NP[Dap]L[Hyp]WGW[NMeNle][NMeNle]LCG-{2‑(phenylthio)ethanamine amide} (thioether N-14, Macrocyclic peptide) [Example 13101]",10 to 60
11,"{CH2CO}-Y[NMeA]NP[Dap]L[Hyp]WGW[NMeNle][NMeNle]LCG-{N‑Boc‑1,5‑diaminopentane} (thioether N-14, Macrocyclic peptide) [Example 13112]",10 to 60
12,"{CH2CO}-Y[NMeA]NP[Dap]L[Hyp]WGW[NMeNle][NMeNle]LCG-cyclobutylamide (thioether N-14, Macrocyclic peptide) [Example 13092]",10 to 60
13,"{CH2CO}-Y[NMeA]NP[Dap]L[Hyp]WGW[NMeNle][NMeNle]LCG-{methylpiperazine amide} (thioether N-14, Macrocyclic peptide) [Example 13089]",10 to 60
14,"{CH2CO}-Y[NMeA]NP[Dap]L[Hyp]WGW[NMeNle][NMeNle]LCG-butylamide (thioether N-14, Macrocyclic peptide) [Example 13100]",10 to 60
15,"{CH2CO}-Y[NMeA]NP[Dap]L[Hyp]WGW[NMeNle][NMeNle]LCG (thioether N-14; not fully specified (C-terminus), Macrocyclic peptide) [Example 13104]",10 to 60
16,"{CH2CO}-Y[NMeA]NP[Dap]L[Hyp]WGW[NMeNle][NMeNle]LCG-{4‑piperidinemethanol} (thioether N-14, Macrocyclic peptide) [Example 13111]",10 to 60
17,"{CH2CO}-Y[NMeA]NP[Dap]L[Hyp]WGW[NMeNle][NMeNle]LCG-{N‑(3-aminopropyl)diethanolamine} (thioether N-14, Macrocyclic peptide) [Example 13107]",10 to 60
18,"{CH2CO}-Y[NMeA]NP[Dap]L[Hyp]WGW[NMeNle][NMeNle]LCG-{N‑(2-aminoethyl)‑N‑methyl carbamic acid tert‑butyl ester} (thioether N-14, Macrocyclic peptide) [Example 13113]",10 to 60
19,"{CH2CO}-Y[NMeA]NP[Dap]L[Hyp]WGW[NMeNle][NMeNle]LCG-{ethanolamine amide} (thioether N-14, Macrocyclic peptide) [Example 13095]",10 to 60
20,"{CH2CO}-Y[NMeA]NP[Dap]L[Hyp]WGW[NMeNle][NMeNle]LCG-{4‑aminocyclohexanol} (thioether N-14, Macrocyclic peptide) [Example 13106]",10 to 60
21,"{CH2CO}-Y[NMeA]NP[Dap]L[Hyp]WGW[NMeNle][NMeNle]LCG-{1‑(3-aminopropyl)imidazole amide} (thioether N-14, Macrocyclic peptide) [Example 13099]",10 to 60
22,"{CH2CO}-Y[NMeA]NP[Dap]L[Hyp]WGW[NMeNle][NMeNle]LCG-{N‑methyl‑N‑propylamide} (thioether N-14, Macrocyclic peptide) [Example 13084]",10 to 60
23,"{CH2CO}-Y[NMeA]NP[Dap]L[Hyp]WGW[NMeNle][NMeNle]LCG-{NH(propargyl)} (thioether N-14; SMILES C#CCNC(=O)CNC(=O)[C@@H]1CSCC(=O)N[C@@H](Cc2ccc(O)cc2)C(=O)N(C)[C@@H](C)C(=O)N[C@@H](CC(N)=O)C(=O)N2CCC[C@H]2C(=O)N[C@@H](CN)C(=O)N[C@@H](CC(C)C)C(=O)N2C[C@H](O)C[C@H]2C(=O)N[C@@H](Cc2c[nH]c3ccccc23)C(=O)NCC(=O)N[C@@H](Cc2c[nH]c3ccccc23)C(=O)N(C)[C@@H](CCCC)C(=O)N(C)[C@@H](CCCC)C(=O)N[C@@H](CC(C)C)C(=O)N1, Macrocyclic peptide) [Example 13096]",10 to 60
24,"{CH2CO}-Y[NMeA]NP[Dap]L[Hyp]WGW[NMeNle][NMeNle]LCG-{4‑(dimethylamino)piperidine amide} (thioether N-14, Macrocyclic peptide) [Example 13103]",10 to 60
25,"{CH2CO}-Y[NMeA]NP[Dap]L[Hyp]WGW[NMeNle][NMeNle]LCG-{2‑aminoethylmethylsulfone} (thioether N-14, Macrocyclic peptide) [Example 13116]",10 to 60
